According to patent US20200347130A1 (JIANGSU HENGRUI MEDICINE, published 2020):
Values belong to the binder of their own block, whether it stands above or below them.

Assays:
[1] = molecular target: T1, CD96 epitope peptide #3 IAVYHPQYGFYCAYGRPCES (47-66) (human); test: peptide ELISA, peptide coated
T1 construct: also called 3# peptides; #3 antigen fragment
T1 peptide: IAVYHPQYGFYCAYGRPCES
Method: (§1) The epitopes recognized by anti-CD96 antibody were detected by the assay of binding the antibody to different polypeptide fragments of CD96 protein. The fragments of different polypeptides of the CD96 antigen were coated on the microtiter plate. The signal density after the antibody was added was used to judge the binding activity of the antibody and the polypeptide. The specific experimental method is as follows:
(§2) The polypeptides were diluted to a concentration of 20 μg/ml with PBS buffer (Shanghai Yuanpei Biotechnology Co., Ltd. Cat No. B320), pH 7.4, added to a 96-well microtiter plate (Corning, Cat No. CLS3590-100EA) at a volume of 50 μl/well, and coated at 4° C. overnight. After discarding the liquid, 250 μl/well of 5% skim milk (BD skim milk, Cat No. 232100) blocking solution diluted with PBS was added, and the plate was incubated in an incubator at 37° C. for 3 hours. After blocking, the blocking solution was discarded, and the plate was washed 5 times with PBST buffer (pH 7.4 PBS containing 0.05% tween-20). 50 μl/well of different concentrations of the antibodies to be tested (hybridoma purification antibody or humanized antibody) diluted with sample dilution was added, and the plate was incubated in an incubator at 37° C. for 2 hours. […] After washing the plate 5 times with PBST, 50 μl/well of TMB chromogenic substrate (KPL, Cat No. 52-00-03) was added, the plate was incubated at room temperature for 5-15 min, followed by adding 50 μl/well of 1M H₂SO₄ to stop the reaction. The absorption value was read at 450 nm with a microplate reader (Thermo Scientific MuLtiskan MK3), and the epitopes that CD96 antibody can recognize were analyzed.

[2] = molecular target: T2, CD96 epitope peptide #21 (310-329) (human); test: peptide ELISA, peptide coated
T2 peptide: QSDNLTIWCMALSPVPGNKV
Method: as §1, §2

[3] = molecular target: T3, CD96 epitope peptide #2 (32-51) (human); test: peptide ELISA, peptide coated
T3 peptide: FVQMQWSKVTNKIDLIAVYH
Method: as §1, §2

[4] = molecular target: T4, CD96 epitope peptide #15 (220-239) (human); test: peptide ELISA, peptide coated
T4 peptide: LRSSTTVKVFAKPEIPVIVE
Method: as §1, §2

[5] = molecular target: T5, CD96 epitope peptide #6 (92-111) (human); test: peptide ELISA, peptide coated
T5 peptide: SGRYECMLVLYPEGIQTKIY
Method: as §1, §2

[6] = molecular target: T6, CD96 epitope peptide #12 (181-200) (human); test: peptide ELISA, peptide coated
T6 peptide: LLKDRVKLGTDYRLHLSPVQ
Method: as §1, §2

[7] = molecular target: T7, CD96 epitope peptide #7 (107-126) (human); test: peptide ELISA, peptide coated
T7 peptide: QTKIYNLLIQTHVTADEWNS
Method: as §1, §2

[8] = molecular target: T8, CD96 epitope peptide #9 (137-156) (human); test: peptide ELISA, peptide coated
T8 peptide: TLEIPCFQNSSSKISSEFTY
Method: as §1, §2

[9] = molecular target: T9, Full-length human CD96 on CHO-S cells (human, UniProt P40200 22-585); test: cell ELISA on fixed CHO-S cells overexpressing human CD96, HRP anti-human secondary antibody, OD450
T9 construct: also called CD96-CHOs; hCD96-CHOs
T9 sequence: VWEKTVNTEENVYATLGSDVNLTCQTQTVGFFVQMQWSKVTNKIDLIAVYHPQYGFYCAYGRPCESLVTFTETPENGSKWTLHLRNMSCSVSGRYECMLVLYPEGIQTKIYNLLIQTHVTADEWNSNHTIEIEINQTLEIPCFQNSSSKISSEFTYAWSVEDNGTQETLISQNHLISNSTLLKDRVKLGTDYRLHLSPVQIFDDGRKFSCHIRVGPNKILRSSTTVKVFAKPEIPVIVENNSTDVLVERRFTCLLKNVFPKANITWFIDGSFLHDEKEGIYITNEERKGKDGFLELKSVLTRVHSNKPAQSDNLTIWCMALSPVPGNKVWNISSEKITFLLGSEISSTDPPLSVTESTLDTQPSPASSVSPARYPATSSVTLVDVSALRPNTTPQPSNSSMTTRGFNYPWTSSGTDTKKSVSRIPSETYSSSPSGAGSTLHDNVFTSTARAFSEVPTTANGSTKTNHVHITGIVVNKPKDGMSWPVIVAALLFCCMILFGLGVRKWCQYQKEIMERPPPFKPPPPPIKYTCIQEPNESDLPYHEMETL
Method: The binding capacity of the anti-CD96 antibody was tested by binding experiments of the antibody to human CD96 protein overexpressing CHO-S cells. The full-length CD96 plasmid was transfected into CHO-S cells by electrotransfection, and cells were then screened for two weeks under pressure for the detection of the expression of CD96. After the over-expressing cells were fixed at the bottom of the 96-well plate, the density of the signal after adding the antibody was used to judge the binding activity of the antibody to CD96 overexpressing CHO-S cells. The specific experimental method is as follows:
The cells were seeded at a density of 9×10⁴/100 μL/well in a 96-well plate and cultured overnight. After aspirating the supernatant, the plate was washed once with PBS, subsequently, 100 μl/well immunostaining fixation solution (Biyuntian, P0098) was added and fixed for one hour at room temperature, and the plate was washed three times with PBS. Once the liquid was discarded, 250 μl/well of 5% skim milk (BD, 232100) blocking solution diluted with PBS was added, and the plate was blocked in an incubator at 37° C. for 2.5 hours. […] The absorption value was read at 450 nm with a NOVOStar microplate reader, and the EC50 value of the CD96 antibodies to CD96 overexpressing CHO-S cells was calculated (see FIG. 1 and Table 15).

binding result [1]: binds
B1: ch1720 (antibody, human IgG4 S228P, kappa, V domains shown)
VH: EFQLQQSGPELVKPGASVKISCKASAYSLTDYNMNWVKQSNGKSLEWIGVINPSYGISSYNQKFKGKATLTVDQSSSTAYMHLNSLTSEDSAVYYCARQLRLPGYFDVWGTGTTVTVSS
VL: DIKMTQSPSSKNASLGERVTITCKASQDINSYLNWFQQKPGKSPKTLIYRASRLVDGVPSRFSGSGSGQDYSLTISSLEYEDMGIYYCLKYDEFPYTFGGGTKLEIKR
notes: also called chimeric antibody corresponding to m1720

binding result [2]: binds
binding result [3]: binds
binding result [4]: binds
binding result [5]: binds
binding result [6]: binds
binding result [7]: binds
binding result [8]: binds
B2: ch1718 (antibody, human IgG4 S228P, kappa, V domains shown)
VH: EFQLQQSGPELVKPGASVKISCKASAYSITDYNMNWVKQSNGKSLEWIGVINPSYGITDYNQNFKDKATLTVDQSSSTAYMQLNSLTSEDSAVYYCAIQLRLPGYFDVWGTGTTVIVSS
VL: DIKMTQSPSSMYASLGERVTITCKASQDINNYLNWFQQKPGKSPKTLIYRANRLVDGVPSRFSGSGSGQDYSLTISSLEYEDMGIYYCLKYDEFPYTFGGGTKVEIKR
notes: also called chimeric antibody corresponding to m1718

EC50 (read off the curve) [9]: ~50 pM
B3: h1719-010 (antibody, V domains shown)
VH: EVTLKESGPVLVKPTETLTLTCTVSGFSLSSYGVSWVRQPPGKGLEWLGVIWGDGNTNYHSVLISRLTISKDTSKSQVVLTLTNMDPVDTATYYCAKQNYYGSRYGYPIDYWGQGTTVTVSS
VL: DIQMTQSPSSVSASVGDRVTITCKATQDVGTAVAWYQQKPGKAPKLLIYWASTRHTGVPSRFSGSGSGTDFTLTISSLQPEDFATYYCQQYGSSVLTFGGGTKVEIK
notes: Only variable regions are tied to this name
